# Laboratory results from article PMC7705443 (2020).
# Target: SARS-CoV-2 RBD (residues 319-541), C-terminal his-tag (SARS-CoV-2, UniProt P0DTC2 319-541)
# Experiment: SPR
binder,measurement,value
"P17 antibody (full-length IgG1) (antibody, V domains shown) VH: QQLVESGGGVVQPGRSLRLSCAASGFTFSSYAMHWVRQAPGKGLEWVAVISYDGSNKYYADSVKGRFTISRDNSKNTLYLQMNSLRAEDTAVYYCARHATLMNNKDIWGQGTLVTVSS VL: not shown",koff,0.000221 s⁻¹
